Source: publication PMC7806223

Legend:
[1] = molecular target: LH1 αβ heterodimer (Rhodopseudomonas palustris CGA009) (UniProt Q6N9L4); test: cryo-EM structure; RC-LH1_(14)-W complex purified from the PufW-His strain; in IMAC buffer (20 mM tris-HCl pH 8.0, 200 mM NaCl, 0.03% β-DDM); 2.65 Å
[2] = molecular target: LH1 αβ heterodimer (Rhodopseudomonas palustris CGA009) (UniProt Q6N9L4); test: cryo-EM structure; RC-LH1_(16) complex purified from the ΔpufW strain (no protein-W); diluted in IMAC buffer (20 mM tris-HCl pH 8.0, 200 mM NaCl, 0.03% β-DDM); 2.80 Å

- stoichiometry N (αβ heterodimers in the open ring) [1]: 14
- stoichiometry N (αβ heterodimers in the closed ring) [2]: 16
Substance: LH1 αβ heterodimer (from UniProt Q6N9L4 1-50; Q6N9L5 2-53) (complex)
